From patent USRE39192E1, “Supplemented and unsupplemented tissue sealants, methods of their production and use” (American National Red Cross, priority 1990, dated 2006)
Structures can show the parent of a compound that is named as a salt.

What was measured:
[1] = tested on: human dermal fibroblasts (HDFs); experiment: Cell migration assay to FGF released from FG; type: cell-based; details: 24 hours
Protocol: FIG. 41. Graph showing the dose-response relationship of the chemotactic response of HDFs to FGF-4 in solution and in FG. FGF-4 was incorporated into FG and placed in the bottom well of chemotaxis chambers. The amount of FGF in the FG was sufficient to result in the indicated concentrations when evenly distributed throughout the FG and medium in the lower chamber. Negative controls included medium alone and FG without FGF. Medium containing FGF-4 at a concentration of […] in the lower chamber was utilized as a positive control.
Chemotaxis chambers and cells were utilized as described above. Fifty μl of 8 mg/ml Topical Fibrinogen Complex (TFC, American Red Cross, Rockville, Md.) was added to the bottom of 24 well plates. Forty μl of test growth factor+/−heparin at a final concentration of 10 U/ml (FGF-1, FGF-4 with heparin, FGF-2 alone) was added to the TFC and thoroughly mixed. Ten μl of bovine Thrombin (Armour Pharmaceutical Company, Kankakee, Ill.) was added and mixed thoroughly. The components were allowed to gel at room temperature for approximately 30 minutes. Total volume in the lower and upper chambers was made up to 0.5 ml each with DMEM+0.1% BSA. The concentration of the FGF's added to the TFC was adjusted to produce the desired overall concentration as determined by: [formula] The assay was performed at 37° C. in a5% CO2 humidified chamber for approximately 24 hours. […]

[2] = tested on: NIH 3T3 fibroblasts; experiment: Cell chemotaxis assay (modified Boyden's chamber), NIH 3T3 fibroblasts; type: cell-based; details: for concentration of maximum stimulation of migration: FGF-1 in the presence of 10 U/ml heparin
Text: (§1) NIH/3T3 fibroblasts at passage 126 were purchased from the American Type Culture Collection, Rockville, Md. Cultures from passages 129-133 were used in the chemotaxis assays. Cultures were propagated in DMEM supplemented with 10%. Calf serum and approximately 1% antibiotic antimycotic solution. Human dermal fibroblasts (HDFs) were purchased from Clonetics, Inc. (San Diego, Calif.) at passage 2. Cultures from passages 3-5 were used in the chemotaxis assays. Cultures were cultivated in DMEM supplemented with 20% FBS (Hyclone Laboratories, Inc., Logan, Utah) and approximately 1% antibiotic antimycotic solution (Gibco, Grand Island, N.Y.).
The procedure used to determine cellular chemotaxis was a combination of two known methodologies. A modification of Boyden's chamber was used as follows: Millicell-PCF (Millipore, Inc., Bedford, Mass.) (12.0 μm) 12.0 mm diameter inserts were placed in individual wells of 24 well plates to create the upper and lower chemotaxis chambers. Chemotaxis results were arrived at by performing checkerboard analysis for every combination of cells and growth factors. […] Briefly, cultures were trypsanized and placed in DMEM+0.1% Bovine Serum Albumin (BSA) (Sigma Chemical Co., St. Louis, Mo.) for approximately one hour at 37° C. in a 5% CO2 humidified chamber. Tow to 2.5×10^5 cells in 50 μl were added per insert to the upper chamber of the setup of the 24 well plates. Treatments were added as mentioned above. The assay was kept at 37° C. in a 5% CO2 humidified chamber for 4 hours. All combinations tested were performed in triplicate. At the end of 4 hours, the plates were removed from the incubator and the filters were stained following the protocol for staining included with the Millicell-PCT inserts. Briefly, the fluid surrounding the inside and outside of the Millicell-PCF inserts were removed. Three percent glutaraldehyde (Sigma Chemical Co., St. Louis, Mo.) was added to the outside and inside of the inserts for approximately 20 minutes. Following removal of the 3.0% glutaraldehyde, 0.5% Triton X-100 (E.M. Science, Cherry Hill, N.J.) was added for 5-7 minutes. On removal of the 0.5% Triton X-100, Fisher's Hematoxylin Solution Gill's Formulation (Fisher Scientific, Newark, Del.) No.1 was added for about 10 minutes. This solution was washed off in running distilled water for about 5 minutes. Using a cotton swab the upper side of the filter was swabbed to remove cells which had not migrated. Filters, were mounted lower side facing up on slides in Crystal Mount™ (Biomedia, Inc., Foster City, Calif.) solution and 10 random field were counted per slide both visually at 400× and at 200×using an Image Analyzing System to automate the enumeration of the cells on the underside of the filters.
(§2) As required, checkerboard analysis was carried out to determine random migration, and positive and negative chemotaxis. Growth factors were added to the upper and/or lower chambers to observe whether cells migrated towards the GF alone (chemotaxis), whether migration was random irrespective of whether the growth factor was added to the upper or lower well (chemokinesis) or whether cell migration was against the chemotactic gradient (negative chemotaxis).

[3] = tested on: human dermal fibroblasts (HDFs); experiment: Cell chemotaxis assay (modified Boyden's chamber), human dermal fibroblasts; type: cell-based
Text: as §1
The procedure used to determine cellular chemotaxis was a combination of two known methodologies. A modification of Boyden's chamber was used as follows: Millicell-PCF (Millipore, Inc., Bedford, Mass.) (12.0 μm) 12.0 mm diameter inserts were placed in individual wells of 24 well plates to create the upper and lower chemotaxis chambers. Chemotaxis results were arrived at by performing checkerboard analysis for every combination of cells and growth factors. Concentrations ranging from 0.1, 1, 10, 100 ng/ml with/without added heparin (10 U/ml) were used for FGF-1, FGF-2 (no heparin) and FGF-4 with all the cell types mentioned in the materials section. Briefly, cultures were trypsanized and placed in DMEM+0.1% Bovine Serum Albumin (BSA) (Sigma Chemical Co., St. Louis, Mo.) for approximately one hour at 37° C. in a 5% CO2 humidified chamber. Tow to 2.5×10^5 cells in 50 μl were added per insert to the upper chamber of the setup of the 24 well plates. Treatments were added as mentioned above. The assay was kept at 37° C. in a 5% CO2 humidified chamber for 4 hours. All combinations tested were performed in triplicate. At the end of 4 hours, the plates were removed from the incubator and the filters were stained following the protocol for staining included with the Millicell-PCT inserts. Briefly, the fluid surrounding the inside and outside of the Millicell-PCF inserts were removed. Three percent glutaraldehyde (Sigma Chemical Co., St. Louis, Mo.) was added to the outside and inside of the inserts for approximately 20 minutes. Following removal of the 3.0% glutaraldehyde, 0.5% Triton X-100 (E.M. Science, Cherry Hill, N.J.) was added for 5-7 minutes. On removal of the 0.5% Triton X-100, Fisher's Hematoxylin Solution Gill's Formulation (Fisher Scientific, Newark, Del.) No.1 was added for about 10 minutes. This solution was washed off in running distilled water for about 5 minutes. Using a cotton swab the upper side of the filter was swabbed to remove cells which had not migrated. Filters, were mounted lower side facing up on slides in Crystal Mount™ (Biomedia, Inc., Foster City, Calif.) solution and 10 random field were counted per slide both visually at 400× and at 200×using an Image Analyzing System to automate the enumeration of the cells on the underside of the filters.
as §2

[4] = tested on: E. coli; experiment: Antimicrobial activity of AB released from AB-FG (zone of inhibition); type: cell-based; details: eluates on agar plates, 18 hours at 37° C.
Protocol: FIG. 27. […] Then the diameter of the zone of inhibition was measured.
In order to measure the concentration and biological activity of the TFT which had been released from the TFT-FG disks, the eluted TFT was thawed and was analyzed spectrophotometrically at 320 nm and/or biologically by the inhibition of E. coli grown on agar plates.
The antimicrobial activity of the AB released from the AB-FG was estimated by measuring the diameters of the zones of inhibition generated by the eluate from the 6 mm diameter disks form the daily collected PBS or saliva surrounding the AB-FG. The eluates from unsupplemented FG served as controls. AB solutions of knwon concentration were used as standards. […] To make the culture plates, 100 μl of the bacterial cell suspension, containing approximately 10^8 cells/ml, was mixed with 3 ml of top agar at 50° C. and immediately poured onto the plate hard, bottom agar to make a uniform layer of cells. The plates were incubated at 37° C. for 18 hours.

[5] = Washout of 125I-HBGF-1 from FG-treated PTFE grafts in rabbit aortas; type: in vivo, New Zealand white rabbits
Protocol: In general, the modified F was sterilely prepared by adding approximately 1 ng/cm^2 area of the inner and outer graft surfaces of human recombinant […], 20 μg/cm^2 porcine intestinal mucosal heparin, and 2.86 mg/cm^2 fibrinogen to 2.86×10^−2 U/cm^2 reconstituted, commercially available, human thrombin (1000 U/ml) to induce polymerization.
The […] was specifically prepared as follows. Fibrinogen was reconstituted by adding 500 mg of fibrinogen into 25 ml of PBS to produce a fibrinogen concentration of 20 mg/ml of PBS. Three ml of this solution which contained 60 mg fibrinogen were placed into […] Eppendorf plastic tubes and maintained at −70° C. Each of these aliquots was used individually.
The thrombin was reconstituted by diluting a commercially available preparation thereof (Armour Pharmaceutical Co., Kankakee, Ill.) at a concentration of 1000 U/ml by a factor of 1:10 in sterile solution to produce a concentration of 100 U/ml. This thrombin solution was again diluted 1:10 to produce a solution of 10 U/ml.
The bovine heparin (Upjohn, Kalamazoo, Mich.) was reconstituted by diluting the preparation at a concentration of 1000 U/ml by a factor of 1:1000 using normal saline.
One and 48/100 (1.48) ml of the reconstituted fibrinogen, 63 μL of the reconstituted heparin, plus 15.66 μL of ^125I-HBGF-1 were mixed in a glass scintillation tube. This mixture was then aspirated into a 3 ml plastic syringe. Five ml of the reconstituted thrombin was placed into a glass scintillation tube.
One end of the expanded PTFE graft was placed over a plastic-3 way stopcock nozzle and was secured there with a 2-0 silk tie. The PTFE was then encircled with a 3×3 cm square of Parafilm™ which was then crimped there with a straight hemostat to establish a watertight seal. A second 2-0 silk tie was positioned over the parafilm adjacent to the stopcock to form another seal. A straight hemostat was then used to clamp the distal 2 mm of the PTFE/parafilm to seal this end.
Equal volumes of fibrinogen and thrombin solution prepared as described above were mixed and allowed to react for approximately 30 seconds which is when polymerization occurs. The thrombin-polymerized fibrin is then opaque. (This time factor is approximate and varies from one thrombin lot to another. The appropriate length of time to polymerization can be determined by viewing the opacity of the mixture). The fibrin/thrombin mixture was aspirated into a one cc syringe. (NOTE: The volume of this graft was 0.42 ml. For a graft with a larger volume one needs to use a larger syringe). […] The treated graft was then ready for implantation. […]

Row | Molecule | checkerboard analysis [2] | concentration of maximum stimulation of migration [2] [ng/mL] | checkerboard analysis [3] | concentration of maximum stimulation of migration [3] [mg/mL] | maximal migratory response over negative control [3] [fold] | antimicrobial activity of released AB [4] | other results
1 | FGF-2: recombinant fibroblast growth factor-2 | chemotactic | 1 | chemotactic | 10 | 12 |  | concentration in FG eliciting peak chemotactic response [1]: 0.01 mg/mL
2 | O=C(O)c1cn(C2CC2)c2cc(N3CCNCC3)c(F)cc2c1=O [CIP, Ciprofloxacin HCl] |  |  |  |  |  | parallels the profiles determined spectrophotometrically | 
3 | ^125I-HBGF-1: radiolabelled human recombinant HBGF-1 in FG applied to PTFE grafts |  |  |  |  |  |  | remaining 125I-HBGF-1, percentage of the zero time value ([5]; after 1 week): 13.44%±6.9%; washout of 125I-HBGF-1 ([5]; after 1 hr): −0.03 %/min; remaining 125I-HBGF-1, percentage of the zero time value ([5]; after 30 days): 3.8%±1.1%; washout of 125I-HBGF-1 ([5]; between 5 and 60 minutes): −24.1 %/min
4 | Cc1ncc([N+](=O)[O-])n1CCO [MET, Metronidazole] |  |  |  |  |  | parallels the profiles determined spectrophotometrically | 
5 | FGF-4: recombinant fibroblast growth factor-4 (protein, UniProt P08620 31-206, looked up) Fibroblast growth factor 4: APTAPNGTLEAELERRWESLVALSLARLPVAAQPKEAAVQSGAGDYLLGIKRLRRLYCNVGIGFHLQALPDGRIGGAHADTRDSLLELSPVERGVVSIFGVASRFFVAMSSKGKLYGSPFFTDECTFKEILLPNNYNAYESYKYPGMFIALSKNGKTKKGNRVSPTMKVTHFLPRL | chemotactic | 10 | chemotactic | 10 | 10 |  | incorporated and total concentration in FG eliciting maximal migratory response [1]: 1 ng/mL
